According to IntAct's records for PubMed 17280616:

B1: Maternal embryonic leucine zipper kinase (Homo sapiens), Q14680 (parent)
chain: MKDYDELLKYYELHETIGTGGFAKVKLACHILTGEMVAIKIMDKNTLGSDLPRIKTEIEALKNLRHQHICQLYHVLETANKIFMVLEYCPGGELFDYIISQDRLSEEETRVVFRQIVSAVAYVHSQGYAHRDLKPENLLFDEYHKLKLIDFGLCAKPKGNKDYHLQTCCGSLAYAAPELIQGKSYLGSEADVWSMGILLYVLMCGFLPFDDDNVMALYKKIMRGKYDVPKWLSPSSILLLQQMLQVDPKKRISMKNLLNHPWIMQDYNYPVEWQSKNPFIHLDDDCVTELSVHHRNNRQTMEDLISLWQYDHLTATYLLLLAKKARGKPVRLRLSSFSCGQASATPFTDIKSNNWSLEDVTASDKNYVAGLIDYDWCEDDLSTGAATPRTSQFTKYWTESNGVESKSLTPALCRTPANKLKNKENVYTPKSAVKNEEYFMFPEPKTPVNKNQHKREILTTPNRYTTPSKARNQCLKETPIKIPVNSTGTDKLMTGVISPERRCRSVELDLNQAHMEETPKRKGAKVFGSLERGLDKVITVLTRSKRKGSARDGPRRLKLHYNVTTTRLVNPDQLLNEIMSILPKKHVDFVQKGYTLKCQTQSDFGKVTMQFELEVCQLQKPDVVGIRRQRLKGDAWVYKRLVEDILSSCKV

Variants of: B1
Details: with BCL2L14, Q9BZR8
BCL2L14, Q9BZR8, sequence (Q9BZR8 whole entry): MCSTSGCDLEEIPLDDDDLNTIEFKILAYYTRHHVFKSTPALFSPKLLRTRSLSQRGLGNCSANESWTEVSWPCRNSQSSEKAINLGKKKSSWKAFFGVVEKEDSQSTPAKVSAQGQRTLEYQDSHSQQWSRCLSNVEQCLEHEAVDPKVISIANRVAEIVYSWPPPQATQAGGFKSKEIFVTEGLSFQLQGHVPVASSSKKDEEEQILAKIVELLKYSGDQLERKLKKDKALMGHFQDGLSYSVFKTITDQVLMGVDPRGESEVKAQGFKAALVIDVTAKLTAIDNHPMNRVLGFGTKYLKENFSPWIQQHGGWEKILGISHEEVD

| effect of a mutation on the interaction | Variant |
| --- | --- |
| disrupting interaction | D150A |
